The first data set concerns the target T1, FAP (Homo sapiens, UniProt Q12884).
T1 construct: expressed in transfected cells; host or cells: 293 cells stably transfected with FAP; cell extract
T1 sequence (Q12884 1-760): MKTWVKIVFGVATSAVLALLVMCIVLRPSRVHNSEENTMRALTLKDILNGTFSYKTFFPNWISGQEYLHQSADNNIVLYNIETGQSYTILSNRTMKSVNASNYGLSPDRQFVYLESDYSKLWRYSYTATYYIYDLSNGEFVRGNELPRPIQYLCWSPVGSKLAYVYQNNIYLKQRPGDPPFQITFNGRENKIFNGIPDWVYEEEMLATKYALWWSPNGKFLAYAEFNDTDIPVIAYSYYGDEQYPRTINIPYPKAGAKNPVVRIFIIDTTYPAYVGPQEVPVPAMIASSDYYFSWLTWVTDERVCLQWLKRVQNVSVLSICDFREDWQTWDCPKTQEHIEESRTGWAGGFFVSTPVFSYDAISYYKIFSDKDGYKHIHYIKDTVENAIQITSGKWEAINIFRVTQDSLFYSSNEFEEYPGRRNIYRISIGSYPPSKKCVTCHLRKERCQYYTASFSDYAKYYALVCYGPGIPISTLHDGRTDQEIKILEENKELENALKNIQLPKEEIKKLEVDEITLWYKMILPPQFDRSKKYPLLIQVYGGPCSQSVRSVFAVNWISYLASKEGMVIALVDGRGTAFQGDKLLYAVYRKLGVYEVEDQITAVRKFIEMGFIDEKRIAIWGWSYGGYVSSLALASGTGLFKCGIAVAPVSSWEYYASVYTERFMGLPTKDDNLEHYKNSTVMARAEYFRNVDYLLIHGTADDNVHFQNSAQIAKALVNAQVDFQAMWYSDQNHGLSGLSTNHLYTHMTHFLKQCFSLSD
Kind of data set: Assay for cleavage of MNA substrates by FAP. In kind it is biochemical. To be noted: 1 ng FAP enzyme (extract of FAP-transfected 293 cells), 20 μl 2.5 mM substrate, 1 hour at room temperature, fluorescence Ex 355/Em 405 nm, FAP-negative 293 control subtracted. As for the experimental part: Assay for Cleavage of MNA Substrates by FAP: Buffer A: 100 mM Tris HCl pH 7.8, 100 mM NaCl Cell extract from 293 cells stably transfected with FAP prepared as described (see Park, et al., Fibroblast Activation Protein, a Dual Specificity Serine Protease expressed in human tumor stromal fibroblasts. (1999) J. Biol. Chem. 36505-12.). A similar extract was also prepared from parental 293 control cells without FAP. The FAP concentration in the FAP-transfected cell extract was estimated by immunoassay and 1 ng enzyme (diluted in buffer A) was used per assay. FAP-negative 293 control cell extract was used at the same dilution (also in buffer A) as a negative control. Substrate was initially dissolved in dimethylformamide at a concentration of 200 mM and diluted in buffer A to a final concentration of 2.5 mM. A few substrates were not soluble at this concentration and had to be diluted further. Assay Conditions: 10 μl 10% DMSO in buffer A 70 μl diluted FAP cell extract containing 1 ng FAP enzyme (OR control 293 cell extract without FAP) 20 μl 2.5 mM substrate Mix, incubate at room temperature for 1 hour, and measure fluorescence in Fluorostar fluorimeter at the following wavelengths: MNA conjugates: Excitation: 355 nm, Emission: 405 nm. The fluorescence measured in the samples treated with control 293 control cell extracts without FAP is subtracted from the values measured in the samples treated with 1 ng FAP enzyme.
“[2-(2-Carboxymethyl-phenyl)-acetyl]-Pro-Ala-Gly-Pro-MNA (PAGP; N-terminal 2-carboxymethylphenylacetyl; C-terminal MNA; printed: Pro-Ala-Gly-Pro-)” gave a Cleavage of 0.94 µM.

As to “[2-(3-Carboxymethyl-phenyl)-acetyl]-N-MeIle-Ala-Gly-Pro-MNA (IAGP; N-terminal 3-carboxymethylphenylacetyl, N-methyl; C-terminal MNA; printed: Ile-Ala-Gly-Pro-)”, the Cleavage stood at 15.36 µM.

Take “[2-(3-Carboxymethyl-phenyl)-acetyl]-N-MeLeu-Ala-Gly-Pro-MNA (LAGP; N-terminal 3-carboxymethylphenylacetyl, N-methyl; C-terminal MNA; printed: Leu-Ala-Gly-Pro-)”: the Cleavage was 12.00 µM.

As for “[2-(3-Carboxymethyl-phenyl)-acetyl]-N-MeVal-Ala-Gly-Pro-MNA (VAGP; N-terminal 3-carboxymethylphenylacetyl, N-methyl; C-terminal MNA; printed: Val-Ala-Gly-Pro-)”, the Cleavage was 9.52 µM.

In turn, “[2-(3-Carboxymethyl-phenyl)-acetyl]-Pro-Ala-Gly-Pro-MNA (PAGP; N-terminal 3-carboxymethylphenylacetyl; C-terminal MNA; printed: Pro-Ala-Gly-Pro-)” returned a Cleavage of 2.80 µM.

On to “[2-(4-Carboxymethyl-phenyl)-acetyl]-Aze-Ala-Gly-Pro-MNA”, for which the Cleavage is 9.54 µM.

With “[2-(4-Carboxymethyl-phenyl)-acetyl]-N-MeIle-Ala-Gly-Pro-MNA (IAGP; N-terminal 4-carboxymethylphenylacetyl, N-methyl; C-terminal MNA; printed: Ile-Ala-Gly-Pro-)”, the Cleavage turned out to be 16.36 µM.

In the case of “[2-(4-Carboxymethyl-phenyl)-acetyl]-N-MeLeu-Ala-Gly-Pro-MNA (LAGP; N-terminal 4-carboxymethylphenylacetyl, N-methyl; C-terminal MNA; printed: Leu-Ala-Gly-Pro-)”, the Cleavage turned out to be 13.97 µM.

In the case of “[2-(4-Carboxymethyl-phenyl)-acetyl]-N-MeVal-Ala-Gly-Pro-MNA (VAGP; N-terminal 4-carboxymethylphenylacetyl, N-methyl; C-terminal MNA; printed: Val-Ala-Gly-Pro-)”, the Cleavage came to 13.39 µM.

As to “[2-(4-Carboxymethyl-phenyl)-acetyl]-Pro-Ala-Gly-Pro-MNA (PAGP; N-terminal 4-carboxymethylphenylacetyl; C-terminal MNA; printed: Pro-Ala-Gly-Pro-)”, the Cleavage is 7.25 µM.

Tested on in the next data set: not listed separately
Kind of data set: Solubility test in a phosphate buffer. The data set is classed as physicochemical.
Conditions: not given
An excerpt:
The solubilities of the compounds of formula
in a phosphate buffer have been compared.
In the case of `COc1cccc2c1C(=O)c1c(O)c3c(c(O)c1C2=O)C[C@@](O)(C(=O)CO)C[C@@H]3OC1CC(NC(=O)[C@@H]2CCCN2C(=O)CNC(=O)[C@H](C)NC(=O)[C@@H]2CCCN2C(=O)Cc2ccccc2)C(O)C(C)O1` (some centres unmarked) [B, reference compound], the solubility (as a rule, how much of the substance goes into solution per volume) is below 2000 µg/mL.

(Values after patent publication US20030211979A1, “FAP-activated anti-tumor compounds” (Boehringer Ingelheim Pharma GmbH & Co. KG, priority 2002, published 2003).)
